# From the supplement of paper PMC10065799, “High-throughput profiling of sequence recognition by tyrosine kinases and SH2 domains using bacterial peptide display” (eLife, 2023)
# Biological target: EPHB1 (UniProt P54762)
# Assay: phosphorylation enrichment, bacterial display (enrichment ratio); higher = better substrate or ligand; peptides without Tyr show the background
# 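Also: 11-residue human phosphosite peptides and single-mutation variants displayed on the E. coli surface, counted by deep sequencing, each peptide's frequency after selection divided by its frequency in the unselected input library; frequency after pTyr selection over input frequency; kinase dosed for 20-30% of maximal phosphorylation in three min.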
# EPHB1, sequence (P54762 whole entry, looked up): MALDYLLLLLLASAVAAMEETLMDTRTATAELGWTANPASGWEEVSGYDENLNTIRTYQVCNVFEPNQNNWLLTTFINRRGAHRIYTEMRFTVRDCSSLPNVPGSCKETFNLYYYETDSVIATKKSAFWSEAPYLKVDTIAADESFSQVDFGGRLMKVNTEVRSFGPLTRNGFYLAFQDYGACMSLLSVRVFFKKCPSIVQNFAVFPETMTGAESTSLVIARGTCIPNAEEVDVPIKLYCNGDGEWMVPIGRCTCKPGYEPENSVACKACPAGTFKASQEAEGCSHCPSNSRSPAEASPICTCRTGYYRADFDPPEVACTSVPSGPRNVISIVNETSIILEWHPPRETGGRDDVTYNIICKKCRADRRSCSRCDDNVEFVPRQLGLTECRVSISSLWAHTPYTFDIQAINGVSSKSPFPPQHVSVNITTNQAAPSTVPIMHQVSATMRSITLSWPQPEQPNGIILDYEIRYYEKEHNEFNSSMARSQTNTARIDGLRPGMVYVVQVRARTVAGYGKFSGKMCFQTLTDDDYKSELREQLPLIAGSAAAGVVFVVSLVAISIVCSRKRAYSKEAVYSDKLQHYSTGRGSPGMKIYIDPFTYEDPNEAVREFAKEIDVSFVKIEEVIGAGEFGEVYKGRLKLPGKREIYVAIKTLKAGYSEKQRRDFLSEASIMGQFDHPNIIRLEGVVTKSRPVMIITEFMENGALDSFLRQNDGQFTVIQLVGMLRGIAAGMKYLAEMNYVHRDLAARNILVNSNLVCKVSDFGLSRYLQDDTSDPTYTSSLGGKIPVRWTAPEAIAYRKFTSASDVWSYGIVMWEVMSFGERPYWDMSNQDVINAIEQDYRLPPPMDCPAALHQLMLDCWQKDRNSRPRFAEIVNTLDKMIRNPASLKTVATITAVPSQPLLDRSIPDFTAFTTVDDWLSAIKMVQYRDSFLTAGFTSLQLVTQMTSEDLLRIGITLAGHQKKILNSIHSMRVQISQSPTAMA
row,Sequence,phosphorylation enrichment
1,GLTSTYAGIRK [ROBO1_Y932],0.303
2,SPGGDYAAMGA [ERBB3_Y1276_G1271S],1.52
3,DTNIAYCLHPR [POMT1_Y581_W582C],0.549
4,GCVSKYSGVFS [TUBGCP6_Y1624],0.433
5,EADRKYEEVAR [TPM3_Y163],0.764
6,QRALLYEDTLY [UNC13D_Y56_A59T],15.2
7,IDDNEYAFLKA [HNF4A_Y286_YF],0.652
8,DESEDYRDTVV [CNNM3_Y456],0.975
9,FIGCIYLFLTK [GARS1_Y414_R412C_YF],0.251
10,HLRAGYIIPLQ [GAA_Y822],0.398
11,PVDVAYRHGYF [PLEC_Y2967_R2969H],0.752
12,MSNFAYVKREV [SCN1A_Y1694],0.457
13,HYGNNYRDVLQ [MACC1_Y803],0.643
14,PVDTYYDSTRG [DYNC2H1_Y2231_M2227V],0.934
15,ENEGTYVCIAT [ADAMTSL3_Y1365],1.73
16,LQPNNYQFCGG [CSF1R_Y969],4.08
17,KPMDTYYDSTR [DYNC2H1_Y2230],0.632

row,Sequence,phosphorylation enrichment
1,ADDSYYTVRSA [ZAP70_Y493_A495V],0.709
2,QRRLVYYEGGA [RYR1_Y245],0.402
3,CTTIHYSYMCN [TP53_Y234_N235S],0.524
4,MNLLGYRQVRS [CHST4_Y359_H361Q],0.439
5,KLFFHYDPKLC [INSR_Y457_N458D],0.643
6,RNDRVYQPLRD [CD3D_Y149_Q147R],0.629
7,FMLFQYLKQIE [RPAP3_Y569_D564Y_YF],0.539
8,FSLIHYAGIVV [MYH7_Y582_D587V],0.652
9,PVDGEYFTLQI [TP53_Y327_L323V],1.16
10,ILDEAYVMASV [EGFR_Y764],0.598
11,IDGLEYLHSQG [STK11_Y166],0.578
12,DGNIDYAEFAK [MCFD2_Y138_Y135N],0.498
13,YSSLGYPPPEG [ZSWIM4_Y87],0.511
14,ATPKGYETDAS [OTC_Y223_P225T],0.502
15,ECKLRYSRKEG [PTPN11_Y263_L262R],0.457
16,DGMADYSDPSY [CDC5L_Y459],1.33

# Biological target: Hck (UniProt P08631)
# Sequence (P08631 whole entry, looked up): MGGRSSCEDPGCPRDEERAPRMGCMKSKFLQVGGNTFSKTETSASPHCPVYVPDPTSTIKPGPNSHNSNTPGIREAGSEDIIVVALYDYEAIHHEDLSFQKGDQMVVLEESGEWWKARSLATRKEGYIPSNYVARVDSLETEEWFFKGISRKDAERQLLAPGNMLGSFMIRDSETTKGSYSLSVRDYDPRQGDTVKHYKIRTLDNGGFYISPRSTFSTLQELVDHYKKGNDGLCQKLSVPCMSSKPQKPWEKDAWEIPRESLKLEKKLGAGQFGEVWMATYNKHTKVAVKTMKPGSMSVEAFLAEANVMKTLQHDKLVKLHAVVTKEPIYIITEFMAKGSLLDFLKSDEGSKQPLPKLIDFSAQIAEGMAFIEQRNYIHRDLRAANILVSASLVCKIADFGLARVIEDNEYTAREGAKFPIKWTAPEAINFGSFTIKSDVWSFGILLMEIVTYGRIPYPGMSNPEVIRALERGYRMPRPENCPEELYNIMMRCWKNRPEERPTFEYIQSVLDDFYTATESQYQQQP
# Assay: as above
row,Sequence,phosphorylation enrichment
1,GLTSTYAGIRK [ROBO1_Y932],6.69
2,SPGGDYAAMGA [ERBB3_Y1276_G1271S],0.455
3,DTNIAYCLHPR [POMT1_Y581_W582C],0.431
4,GCVSKYSGVFS [TUBGCP6_Y1624],0.411
5,EADRKYEEVAR [TPM3_Y163],0.663
6,QRALLYEDTLY [UNC13D_Y56_A59T],4.67
7,IDDNEYAFLKA [HNF4A_Y286_YF],0.98
8,DESEDYRDTVV [CNNM3_Y456],0.765
9,FIGCIYLFLTK [GARS1_Y414_R412C_YF],0.485
10,HLRAGYIIPLQ [GAA_Y822],0.268
11,PVDVAYRHGYF [PLEC_Y2967_R2969H],0.695
12,MSNFAYVKREV [SCN1A_Y1694],0.552
13,HYGNNYRDVLQ [MACC1_Y803],0.694
14,PVDTYYDSTRG [DYNC2H1_Y2231_M2227V],1.31
15,ENEGTYVCIAT [ADAMTSL3_Y1365],1.08
16,LQPNNYQFCGG [CSF1R_Y969],0.86
17,KPMDTYYDSTR [DYNC2H1_Y2230],1.13

row,Sequence,phosphorylation enrichment
1,ADDSYYTVRSA [ZAP70_Y493_A495V],2.89
2,QRRLVYYEGGA [RYR1_Y245],0.421
3,CTTIHYSYMCN [TP53_Y234_N235S],0.53
4,MNLLGYRQVRS [CHST4_Y359_H361Q],0.45
5,KLFFHYDPKLC [INSR_Y457_N458D],0.327
6,RNDRVYQPLRD [CD3D_Y149_Q147R],5.18
7,FMLFQYLKQIE [RPAP3_Y569_D564Y_YF],0.505
8,FSLIHYAGIVV [MYH7_Y582_D587V],0.568
9,PVDGEYFTLQI [TP53_Y327_L323V],2.38
10,ILDEAYVMASV [EGFR_Y764],0.515
11,IDGLEYLHSQG [STK11_Y166],0.413
12,DGNIDYAEFAK [MCFD2_Y138_Y135N],0.673
13,YSSLGYPPPEG [ZSWIM4_Y87],1.66
14,ATPKGYETDAS [OTC_Y223_P225T],0.438
15,ECKLRYSRKEG [PTPN11_Y263_L262R],0.503
16,DGMADYSDPSY [CDC5L_Y459],0.487
